The record followed here is publication PMC6637149, “Cryo-EM and directed evolution reveal how Arabidopsis nitrilase specificity is influenced by its quaternary structure” (Communications Biology, 2019).

Series [1] concerns the molecule itself. Kind of series: cryo-EM structure; purified AtNIT4 filaments (~0.15 mg/ml) in 50 mM Tris-HCl pH 8.0, 100 mM NaCl, blotted at ~10% humidity, 25 °C; helical reconstruction, one helical turn treated as a single particle.
Series [2] deals with the molecule itself. Kind of series: negative-stain electron microscopy with 3D helical reconstruction; purified NIT filaments on carbon-coated copper grids, 2% uranyl acetate; iterative helical real-space reconstruction.

Numbering of substitutions follows the chain as printed. In names and notes the source's numbering stands.

B1: Arabidopsis thaliana nitrilase 4 (AtNIT4), wild type (enzyme, UniProt P46011 1-355, looked up)
chain: MSMQQETSHMTAAPQTNGHQIFPEIDMSAGDSSSIVRATVVQASTVFYDTPATLDKAERLLSEAAENGSQLVVFPEAFIGGYPRGSTFELAIGSRTAKGRDDFRKYHASAIDVPGPEVERLALMAKKYKVYLVMGVIEREGYTLYCTVLFFDSQGLFLGKHRKLMPTALERCIWGFGDGSTIPVFDTPIGKIGAAICWENRMPSLRTAMYAKGIEIYCAPTADSRETWLASMTHIALEGGCFVLSANQFCRRKDYPSPPEYMFSGSEESLTPDSVVCAGGSSIISPLGIVLAGPNYRGEALITADLDLGDIARAKFDFDVVGHYSRPEVFSLNIREHPRKAVSFKTSKVMEDESV
notes: Nitrilase 4 of Arabidopsis thaliana, NP_197622.1, AT5G22300; 355 residues in all, 289 built in the model; Forms open-ended left-handed helical filaments built of dimers, so no fixed number of copies. pET-21b(+) usually adds a C-terminal His6 tag (surmised); also called AtNIT4 wt; source: E. coli BL21-CodonPlus (DE3)-RIL, pET-21b(+), purified (Ni-NTA, SEC)
Consider B1, for which the binding result in series [1] is reported as “binds”.

B2: AtNIT4 R95T L169A S224Q (enzyme, Arabidopsis thaliana, UniProt P46011 1-355, looked up)
chain: B1 chain with R95T, L169A, S224Q
notes: Nitrilase 4 of Arabidopsis thaliana, NP_197622.1, with three substitutions selected from a site-saturation library made in the vector of the wild type; Selected by directed evolution from the AtNIT4 pET-21b(+) vector; full length is inferred from the parent construct; also called the mutant; NIT4 mutant; source: E. coli BL21-CodonPlus (DE3)-RIL, pET-21b(+), purified (Ni-NTA, SEC)
In the case of B2, in series [2], the binding result is “binds”.

B3: AtNIT4 R95T (enzyme, Arabidopsis thaliana, UniProt P46011 1-355, looked up)
chain: B1 chain with R95T
notes: Nitrilase 4 of Arabidopsis thaliana, NP_197622.1, with the substitution R95T; Full length is inferred from the parent construct; source: E. coli BL21-CodonPlus (DE3)-RIL, pET-21b(+), purified (Ni-NTA, SEC)
In the case of B3, the binding result in series [2] is reported as “binds”.
